Assay results from US6339070B1, “Gene construct encoding a heterologous prodrug-activating enzyme and a cell targeting moiety” (Zeneca Limited, priority 1997, dated 2002).
Entries after “also recorded” stand apart in the source; their conditions may differ.

What was measured:
[1] = Enzyme activity in plasma samples (methotrexate turnover, HPLC); assay type: in vivo; settings: except when tumour enzyme activity exceeded 2.0 U/g
Experimental: To act as a standard for the assay, a CPG2 enzyme standard curve was prepared in 20% normal plasma to the following concentrations: 0.2, 0.4, 0.6, 0.8 and 1.0 U/ml. Similarly all test plasma samples were also diluted to 20% normal plasma. Further dilutions of these samples e.g. neat 1/10, 1/20 and 1/50 were also made using 20% normal serum. 200 μl aliquots of each CPG2 standard and test sample dilutions were equilibrated to 30°. 2 μl of 10 mM MTX was added to each of the tubes and mixed well. […]. The reaction was stopped after exactly 10 minutes (to increase the sensitivity of the assay the incubation time can be increased to 30 minutes) by adding 500 μl ice cold methanol+0.2% TFA and assayed for product using HPLC detection as described above in Example 10.

CEA negative cell lines = test: Cell based ELISA of secreted fusion protein, CEA negative cells; settings: increasing amounts of added fusion protein; listed as (A5B7-CPG2)2 fusion protein
Experimental: (§1) Cells were seeded into 96 well plates (Becton Dickinson Biocoat™ poly-D-Lysine, 35-6461) at a density of 1×10^4 cells per well in 100 μl normal culture media and left about 40 h at 37°. 100 μl of 6% formaldehyde was diluted in DMEM and left for 1 hour at 4°. Plates were centrifuged and washed 3 times in PBS containing 0.05% Tween™ by immersion soaking (first two washes for 2 minutes and the final wash for 5 minutes).
(§2) 100 μl of doubling dilutions of cell culture supernatant containing fusion protein or chimeric A5B7 anti-CEA were added to each well as appropriate and the plates incubated overnight at 4°. The plates were washed as described above and, in the case of chimaeric fusion proteins. 100 μl of 1:1000 dilution of HRP labelled anti-human kappa antibody (Sigma A-7164) was added and incubated for 2 hours at room temperature (an anti-CPG2 detection methodology can be used in the case of murine scFv fusion proteins). The plates were washed as described above and HRP detected using OPD substrate (Sigma P-8412). Colour was allowed to develop for about 5 min, stopped with 75 μl per well of 2M H2SO4 and OD read at 490 nm.
(§3) In the case of the (A5B7-CPG2)2 fusion protein, material was produced in the supernatant from recombinant Colo32ODM tumour cells (CEA-ve). The fusion protein content was measured by use of the CEA ELISAs described above. […]

[2] = target: T1, human carcinoembryonic antigen (CEA) (Homo sapiens, UniProt P06731); test: CEA-binding ELISA, anti-CPG2 reporter antibody; settings: COS-7 transient expression supernatant
T1 sequence (P06731 35-676): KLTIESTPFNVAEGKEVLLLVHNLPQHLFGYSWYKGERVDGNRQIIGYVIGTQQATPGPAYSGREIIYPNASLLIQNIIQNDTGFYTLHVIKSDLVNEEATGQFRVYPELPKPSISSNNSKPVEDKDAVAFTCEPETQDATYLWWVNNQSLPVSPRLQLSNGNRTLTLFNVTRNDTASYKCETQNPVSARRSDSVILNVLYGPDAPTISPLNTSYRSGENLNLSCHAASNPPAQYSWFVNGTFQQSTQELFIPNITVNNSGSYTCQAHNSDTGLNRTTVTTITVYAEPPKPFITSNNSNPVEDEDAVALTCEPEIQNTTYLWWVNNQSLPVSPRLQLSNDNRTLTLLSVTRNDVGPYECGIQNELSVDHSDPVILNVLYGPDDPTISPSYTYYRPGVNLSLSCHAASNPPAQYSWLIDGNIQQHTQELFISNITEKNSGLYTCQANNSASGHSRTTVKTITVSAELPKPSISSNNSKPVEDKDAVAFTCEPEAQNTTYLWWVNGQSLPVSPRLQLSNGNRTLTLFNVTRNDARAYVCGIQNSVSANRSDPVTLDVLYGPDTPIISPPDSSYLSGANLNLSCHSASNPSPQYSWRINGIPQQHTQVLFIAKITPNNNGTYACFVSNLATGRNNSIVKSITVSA
Experimental: The CEA ELISA using an anti CPG2 reporter antibody was essentially as above but instead of HRPO-labelled goat anti-human kappa antibody an 1/1000 dil. of a rabbit anti-CPG2 polyclonal sera was added, in 1% BSA in PBS-TWEEN™ and incubated at room temperature on a rocking platform for at 2 hours. The plate was washed three times with PBS-TWEEN™. A 1/2000 dilution of a goat anti-rabbit HRPO labelled antibody (Sigma A-6154) was then added and incubated at room temperature on a rocking platform for 1 hour, the plate was washed three times with PBS-TWEEN™ and once with PBS. To detect binding add 100 μl per well developing solution (one capsule of phosphate-citrate buffer—Sigma P4922—dissolved in 100 ml H2O to which is added one 30 mg tablet o-phenylenediamine dihydrochloride—Sigma P8412) and incubated for up to 15 minutes. The reaction was stopped by adding 75 μl 2M H2SO4, and absorbance read at 490 nm.

[3] = test system: LoVo, CEA bearing, tumour cells; test: In vitro cell killing assay: cell-bound fusion protein plus PGP prodrug, SRB stain; assay type: cell-based; settings: unbound protein washed off, PGP 1 hr, 4 days proliferation
Experimental: An in vitro cell killing assay was performed in which the (A5B7-CPG2 R6)2 fusion protein was compared to a “conventional” A5B7 F(ab′)2-CPG2 conjugate formed through linking A5B7 F(ab′)2 to CPG2 with a chemical heterobifunctional reagent. […] The cells were then washed to remove unbound protein material and subsequently resuspended in medium containing a CPG2 phenol prodrug (PGP, see Example 2 below) for a period of 1 hr, after which the cells were washed, resuspended in fresh media and left to proliferate for 4 days. Finally the cells were treated with SRB stain and their numbers determined.

[4] = test system: CEA positive LoVo parental line; test: Cell based ELISA of secreted fusion protein, CEA positive cells; settings: increasing amounts of added fusion protein, listed as (A5B7-CPG2)2 fusion protein
Experimental: as §1, §2, §3

B1: (A5B7 Fab-CPG2)2 fusion protein: chimaeric A5B7 anti-CEA Fab, heavy chain Fd linked via (G4S)3 linker to CPG2 R6, dimerised through CPG2 (antibody)
heavy: EVKLVESGGGLVQPGGSLRLSCATSGFTFTDYYMNWVRQPPGKALEWLGFIGNKANGYTTEYSASVKGRFTISRDKSQSILYLQMNTLRAEDSATYYCTRDRGLRFYFDYWGQGTTLTVSSASTKGPSVFPLAPCSRSTSESTAALGCLVKDYFPEPVTVSWNSGALTSGVHTFPAVLQSSGLYSLSSVVTVPSSNFGTQTYTCNVDHKPSNTKVDKTVGGGGSGGGGSGGGGSQKRDNVLFQAATDEQPAVIKTLEKLVNIETGTGDAEGIAAAGNFLEAELKNLGFTVTRSKSAGLVVGDNIVGKIKGRGGKNLLLMSHMDTVYLKGILAKAPFRVEGDKAYGPGIADDKGGNAVILHTLKLLKEYGVRDYGTITVLFNTDEEKGSFGSRDLIQEEAKLADYVLSFEPTSAGDEKLSLGTSGIAYVQVQITGKASHAGAAPELGVNALVEASDLVLRTMNIDDKAKNLRFQWTIAKAGQVSNIIPASATLNADVRYARNEDFDAAMKTLEERAQQKKLPEADVKVIVTRGRPAFNAGEGGKKLVDKAVAYYKEAGGTLGVEERTGGGTDAAYAALSGKPVIESLGLPGFGYHSDKAEYVDISAIPRRLYMAARLIMDLGAGK
light: QTVLSQSPAILSASPGEKVTMTCRASSSVTYIHWYQQKPGSSPKSWIYATSNLASGVPARFSGSGSGTSYSLTISRVEAEDAATYYCQHWSSKPPTFGGGTKLEIKRTVAAPSVFIFPPSDEQLKSGTASVVCLLNNFYPREAKVQWKVDNALQSGNSQESVTEQDSKDSTYSLSSTLTLSKADYEKHKVYACEVTHQGLSSPVTKSFNRGEC
- enzyme activity in plasma [1]: No activity was seen in the plasma
- binding to CEA negative cells (OD 490 nm) (CEA negative cell lines): only constant background binding levels throughout; also recorded: do not bind to CEA negative lines
- CEA binding detected with anti-CPG2 reporter antibody [2]: exhibited clear CEA binding
- cell kill with PGP prodrug compared with equivalent levels of A5B7 F(ab)2-CPG2 conjugate [3]: at least equivalent cell kill
- binding to CEA positive cells (OD 490 nm) [4]: increased levels of binding with increasing amounts of added fusion protein; also recorded: binds specifically to a CEA positive cell line in a dose dependant manner
